From patent US20120231006A1 (Amgen, published 2012)
Residue numbers refer to the chain shown, from its start. Read-outs that look alike come from different tables or passages of the source.

B1: mAb 2D2.1 (antibody, human IgG2, lambda, V domains shown)
VH: QVQLQQWGAGLLKPSETLSLTCAVYGGSFSGYYWSWIRQPPGKGLEWIGEIDHSGRINYNPALKSRLTISVDTSKNQFSLKLSSVTAADTAVYYCARAGSGGYEDWFDPWGQGTLVTVSS
VL: QSVLTQPPSVSGAPGQRVTISCTGSSSNIGAGYNVHWYQQFPRTDPKLLIYVYNIRPSGVPDRFSGSRSGTSASLAITGLQTEDEADYYCQSYDSSLSGVVFGGGTKLTVLG
notes: fully human IgG2 lambda, Campaign 1; also called mAb 2D.1
B2: mAb 2B7.1 (antibody, human IgG2, V domains shown)
VH: B1 VH with R56S, I57T
VL: B1 VL with A31T
notes: fully human, Campaign 1
B3: mAb 2C1.1 (antibody, human IgG2, lambda, V domains shown)
VH: B1 VH with R56S, I57T
VL: B1 VL
notes: fully human IgG2 lambda, Campaign 1; tested hybridoma-purified and recombinant; also called anti-hOrai1 mAb 2C1.1
B4: mAb 5F7.1 (antibody, human IgG2, lambda)
heavy: QVQLVQSGAEVKKPGASVKVPCKASGYTFTDYYINWVRQAPGQGLEWMGWINPNNGGTNYAQKFQGRVTMTRDTSISTAYMELRRLRSDDTAVYYCARERGGYEDWFDPWGQGTLVTVSSASTKGPSVFPLAPCSRSTSESTAALGCLVKDYFPEPVTVSWNSGALTSGVHTFPAVLQSSGLYSLSSVVTVPSSNFGTQTYTCNVDHKPSNTKVDKTVERKCCVECPPCPAPPVAGPSVFLFPPKPKDTLMISRTPEVTCVVVDVSHEDPEVQFNWYVDGVEVHNAKTKPREEQFNSTFRVVSVLTVVHQDWLNGKEYKCKVSNKGLPAPIEKTISKTKGQPREPQVYTLPPSREEMTKNQVSLTCLVKGFYPSDIAVEWESNGQPENNYKTTPPMLDSDGSFFLYSKLTVDKSRWQQGNVFSCSVMHEALHNHYTQKSLSLSPGK
light: QSVLTQPPSVSGAPGQRVTISCTGSSSNIGAGFDVHWYQQLPVTAPKLLIYGNRNRPSGVPARFSGSKSGTSASLAITGLQAEDEAVYYCQSYDSSLTVFGGGTKLTVLGQPKANPTVTLFPPSSEELQANKATLVCLISDFYPGAVTVAWKADGSPVKAGVETTKPSKQSNNKYAASSYLSLTPEQWKSHRSYSCQVTHEGSTVEKTVAPTECS
notes: fully human IgG2 lambda, Campaign 2
B5: mAb 2B4.1 (antibody, human IgG2, lambda, V domains shown)
VH: QVQLVQSGAEVKKPGASVKVSCKASGYTFTDYYMHWVRQAPGQGLEWMGWINPNSGGTNYVQKFQDRVTMTRDTSITTAYMELTRLRSDDTAVYYCAREEGDYGMDVWGQGTTVTVSS
VL: QSVLTQPPSVSGAPGQRVTISCTGSNSNIGTGYDVHWYQKLPGTAPRLLIYSHFNRPSGVPDRFSGSTSGTSASLAITGLQAEDEADYYCQSYDSSLSGSVFGGGTKLTVLG
B6: mAb 5A4.2 (antibody, human IgG2, lambda, V domains shown)
VH: QVQLVQSGAEVKKPGASVKVSCKASGYTFTDYYMNWVRQAPGQGLEWMGWINPNSGGTKYAQKFQGRVTMTRDTSIRTAYMELSRLRSDDTAVYYCSREYGGNSDWFDPWGQGTLVTVSS
VL: QSVLTQPPSVSGAPGQRVTISCTGSSSNIGAGYDVHWYQQLPGTAPKLLIYGNSNRPSGVPDRFSGSKSGTSASLAITGLQAEDEADYYCQSYDNRLSDSVVIGGGTKLTVQG
notes: as for B4
B7: mAb 5F2.1 (antibody, human IgG2, lambda, V domains shown)
VH: B6 VH with K59H, R77S, S97A, N103Y
VL: B6 VL with S26R, G43R, G52D, T71S, R96S, V102L, Q112L
notes: as for B4

Experiments:
[1] = target: T1, human Orai1 (human, UniProt Q96D31 1-301); assay: cell-based or functional assay
[2] = target: T2, hOrai1-mOrai1 ECL2 (VST) protein (human/mouse chimera, UniProt Q96D31 1-301); assay: FACS, 293EBNA; design: concentration or dose not given beside the values
T2 construct: also called Ch
Description: (§1) FACS binding analysis. Transfected 293EBNA cells transiently expressed hOrai1-mOrai1 ECL2 or mOrai1-hOrai1 ECL2 chimera. The transfected cells were harvested at 48 hours post-transfection. Cells transfected with pcDNA3.1 were used as negative controls. Cells were washed once with ice-cold 1×PBS, resuspended in ice-cold FACS buffer (1×D-PBS+2% goat serum), and 2×10⁵ cells in 100 μL were stained per antibody combination. All antibody incubation steps were performed on ice for 1 hour. […] Next, the unlabelled antibody was detected using goat F(ab′)₂ anti-mouse or anti-human IgG-phycoerythrin (IgG-PE), followed by a wash with 200 μL of ice-cold FACS buffer before flow cytometry analysis. Unstained cells and cells stained with detecting antibodies were used as negative controls. The values of relative level of fluorescence were calculated using FCS Express (De Novo Software) and mean values were calculated using log-transformed data (geometric mean). The results of the FACS analysis are shown in FIG. 15A-B, which supports the conclusion that the hOrai1 ECL2 domain is the region of hOrai1 where antibodies of the present invention bind.
(§2) Representative results of FACS analysis of binding to the mutant hOrai1-mOrai1 ECL2 chimera described above by exemplary anti-hOrai1 antibodies of the present invention are shown in FIG. 17A-D, Table 10A and Table 10B below. Table 10A (Campaign 1) and Table 10B (Campaign 2) show the gain in binding ability of exemplary monoclonal antibodies to hOrai 1-mOrai 1 ECL2 chimera mutants as determined by FACS.

[3] = target: T3, hOrai1-mOrai1 ECL2 chimeric protein (human/mouse chimera, UniProt Q96D31 1-301); assay: FACS, 293EBNA; design: concentration or dose not given beside the values
T3 construct: human Orai1 with mouse ECL2; also called Ch
Description: as §1, §2

[4] = target: T4, hOrai1-mOrai1 ECL2 (…) protein (human/mouse chimera, UniProt Q96D31 1-301); assay: FACS, 293EBNA; design: concentration or dose not given beside the values
T4 construct: also called Ch
Description: as §1, §2

[5] = target: T5, hOrai1-mOrai1 ECL2 (AANVST) protein (human/mouse chimera, UniProt Q96D31 1-301); assay: FACS, 293EBNA; design: concentration or dose not given beside the values
T5 construct: also called Ch
Description: as §1, §2

[6] = target: T6, hOrai1-mOrai1 ECL2 (GAA) protein (human/mouse chimera, UniProt Q96D31 1-301); assay: FACS, 293EBNA; design: concentration or dose not given beside the values
T6 construct: also called Ch
Description: as §1, §2

[7] = target: T7, hOrai1-mOrai1 ECL2 (PASGAA) protein (human/mouse chimera, UniProt Q96D31 1-301); assay: FACS, 293EBNA; design: concentration or dose not given beside the values
T7 construct: also called Ch
Description: as §1, §2

[8] = target: T8, mOrai1-hOrai1 ECL2 (AESVIV) protein (human/mouse chimera, UniProt Q8BWG9 1-304 (mouse entry)); assay: FACS, 293EBNA transfectants [D00028 FIG. 16B]
T8 construct: also called Ch
From the text: (§3) FIG. 16A-D illustrates the results of FACS analysis showing binding to the indicated mOrai1-hOrai1 ECL2 chimeric mutants expressed on the surface of HEK-293-EBNA cells. Transfected cells were stained first with recombinant monoclonal antibodies then counter-stained with a secondary phycoerythrin-labeled goat (“Gt”) anti-human (“Hu”) IgG F(ab′)₂ antibody fragment and visualized using FACS. In FIG. 16B and FIG. 16D, The values of Relative Fluorescence Intensity as Percent of Control (RFI-POC) are calculated from the relative fluorescence intensity geometric mean (Geo Mean). The geometric mean is an average calculated by multiplying a series of numbers and taking the nth root where n is the number of numbers in the series. It is a statistical average of a set of transformed numbers often used to represent a central tendency in a highly variable data set that minimizes the effects of extreme values.
(§4) Table 11A and Table 11B feature a schematic representation of the POC data from FIG. 16B and FIG. 16D, respectively, where the binding results are recorded as (+++) denoting binding POC from 40% to 100%, (++) for POC of 5% to less than 40%, (+) for POC from 1% to less than 5% and (−) as lack of binding with POC less than 1%.

[9] = target: T9, mOrai1-hOrai1 ECL2 (…) protein (human/mouse chimera, UniProt Q8BWG9 1-304 (mouse entry)); assay: FACS, 293EBNA transfectants [D00028 FIG. 16B]
T9 construct: also called Ch
From the text: as §3, §4

[10] = target: cynomolgus Orai1 (cynomolgus monkey, UniProt Q96D31 1-301 (human entry)); assay: cell-based or functional assay
[11] = target: T1, human Orai1; assay: cell-based or functional assay; remark: listed apart in the source
[12] = target: T10, mOrai1-hOrai1 ECL2 (HSD) protein (human/mouse chimera, UniProt Q8BWG9 1-304 (mouse entry)); assay: FACS, 293EBNA transfectants [D00028 FIG. 16B]
T10 construct: also called Ch
From the text: as §3, §4

[13] = target: T11, mOrai1-hOrai1 ECL2 chimeric protein (human/mouse chimera, UniProt Q8BWG9 1-304 (mouse entry)); assay: FACS, 293EBNA transfectants [D00028 FIG. 16B]
T11 construct: mouse Orai1 with human ECL2; also called Ch
From the text: as §3, §4

[14] = target: T12, mOrai1-hOrai1 ECL2 (VIV) protein (human/mouse chimera, UniProt Q8BWG9 1-304 (mouse entry)); assay: FACS, 293EBNA transfectants [D00028 FIG. 16B]
T12 construct: also called Ch
From the text: as §3, §4

cynomolgus Orai1, sequence (Q96D31 other isoform, or with tags, fused parts or gaps): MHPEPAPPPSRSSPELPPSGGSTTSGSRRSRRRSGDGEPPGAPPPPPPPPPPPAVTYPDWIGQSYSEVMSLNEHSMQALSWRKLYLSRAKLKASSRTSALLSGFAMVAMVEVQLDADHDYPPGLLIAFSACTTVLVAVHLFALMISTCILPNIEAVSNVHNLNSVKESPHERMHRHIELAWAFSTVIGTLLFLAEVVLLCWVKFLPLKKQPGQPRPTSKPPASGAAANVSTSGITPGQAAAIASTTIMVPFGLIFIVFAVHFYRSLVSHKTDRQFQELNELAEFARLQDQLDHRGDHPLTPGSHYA
T6 sequence (Q96D31 other isoform, or with tags, fused parts or gaps): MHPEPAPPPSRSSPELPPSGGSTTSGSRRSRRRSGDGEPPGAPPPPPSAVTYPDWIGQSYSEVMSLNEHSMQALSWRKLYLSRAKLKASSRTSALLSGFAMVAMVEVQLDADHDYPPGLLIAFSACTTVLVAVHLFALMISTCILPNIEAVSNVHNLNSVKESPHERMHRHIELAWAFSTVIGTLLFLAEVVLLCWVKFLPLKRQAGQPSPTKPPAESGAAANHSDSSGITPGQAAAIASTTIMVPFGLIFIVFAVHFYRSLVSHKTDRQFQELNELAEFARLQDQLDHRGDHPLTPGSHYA
T2 sequence (Q96D31 other isoform, or with tags, fused parts or gaps): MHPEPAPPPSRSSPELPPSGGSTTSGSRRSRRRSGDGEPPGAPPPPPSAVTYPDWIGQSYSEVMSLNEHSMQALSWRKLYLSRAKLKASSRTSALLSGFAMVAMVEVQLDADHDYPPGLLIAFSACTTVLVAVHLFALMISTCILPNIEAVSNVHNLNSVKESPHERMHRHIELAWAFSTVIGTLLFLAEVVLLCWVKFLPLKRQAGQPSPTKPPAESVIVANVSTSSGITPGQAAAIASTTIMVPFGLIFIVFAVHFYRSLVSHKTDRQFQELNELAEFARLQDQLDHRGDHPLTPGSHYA
T7 sequence (Q96D31 other isoform, or with tags, fused parts or gaps): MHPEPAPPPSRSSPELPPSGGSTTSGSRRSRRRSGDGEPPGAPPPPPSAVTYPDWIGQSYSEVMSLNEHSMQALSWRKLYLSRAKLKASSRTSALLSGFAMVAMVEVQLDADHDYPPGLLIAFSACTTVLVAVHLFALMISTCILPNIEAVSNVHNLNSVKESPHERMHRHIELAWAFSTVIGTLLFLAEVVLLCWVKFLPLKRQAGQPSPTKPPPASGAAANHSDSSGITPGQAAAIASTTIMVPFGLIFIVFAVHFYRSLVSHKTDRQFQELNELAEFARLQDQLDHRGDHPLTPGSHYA
T4 sequence (Q96D31 other isoform, or with tags, fused parts or gaps): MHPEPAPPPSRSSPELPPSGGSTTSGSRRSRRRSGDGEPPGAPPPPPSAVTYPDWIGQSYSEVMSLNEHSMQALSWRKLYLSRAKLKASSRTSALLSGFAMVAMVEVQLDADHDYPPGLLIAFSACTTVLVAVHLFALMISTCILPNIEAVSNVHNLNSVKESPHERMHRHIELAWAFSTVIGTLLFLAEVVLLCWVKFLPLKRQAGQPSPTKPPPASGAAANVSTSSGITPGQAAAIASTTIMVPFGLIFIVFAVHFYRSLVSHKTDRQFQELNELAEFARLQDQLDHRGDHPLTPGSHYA
T1 sequence (Q96D31 whole entry): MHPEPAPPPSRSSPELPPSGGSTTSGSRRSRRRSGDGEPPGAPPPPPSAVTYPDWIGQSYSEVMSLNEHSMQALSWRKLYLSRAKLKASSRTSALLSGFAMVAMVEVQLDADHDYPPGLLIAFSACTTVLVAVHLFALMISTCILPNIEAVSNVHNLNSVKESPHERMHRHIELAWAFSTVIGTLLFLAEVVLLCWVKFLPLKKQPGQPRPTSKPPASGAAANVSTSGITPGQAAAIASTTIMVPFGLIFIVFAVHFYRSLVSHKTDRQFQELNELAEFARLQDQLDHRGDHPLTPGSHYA
T5 sequence (Q96D31 other isoform, or with tags, fused parts or gaps): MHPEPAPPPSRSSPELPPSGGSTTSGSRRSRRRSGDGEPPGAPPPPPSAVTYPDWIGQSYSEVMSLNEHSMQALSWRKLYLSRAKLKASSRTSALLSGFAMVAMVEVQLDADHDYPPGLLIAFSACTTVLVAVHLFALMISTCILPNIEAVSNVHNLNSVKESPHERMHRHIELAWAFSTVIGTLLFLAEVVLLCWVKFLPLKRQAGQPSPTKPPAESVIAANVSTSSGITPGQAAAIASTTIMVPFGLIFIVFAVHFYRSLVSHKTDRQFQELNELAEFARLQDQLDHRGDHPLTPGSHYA
T3 sequence (Q96D31 other isoform, or with tags, fused parts or gaps mutant): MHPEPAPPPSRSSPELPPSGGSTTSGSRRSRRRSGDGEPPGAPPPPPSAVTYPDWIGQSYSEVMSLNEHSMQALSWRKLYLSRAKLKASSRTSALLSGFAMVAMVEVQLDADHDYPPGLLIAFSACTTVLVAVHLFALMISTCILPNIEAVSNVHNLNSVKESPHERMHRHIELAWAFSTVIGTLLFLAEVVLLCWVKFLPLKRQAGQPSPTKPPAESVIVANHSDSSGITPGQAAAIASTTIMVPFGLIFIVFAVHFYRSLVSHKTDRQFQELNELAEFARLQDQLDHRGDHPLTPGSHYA
T9 sequence (Q8BWG9 other isoform, or with tags, fused parts or gaps): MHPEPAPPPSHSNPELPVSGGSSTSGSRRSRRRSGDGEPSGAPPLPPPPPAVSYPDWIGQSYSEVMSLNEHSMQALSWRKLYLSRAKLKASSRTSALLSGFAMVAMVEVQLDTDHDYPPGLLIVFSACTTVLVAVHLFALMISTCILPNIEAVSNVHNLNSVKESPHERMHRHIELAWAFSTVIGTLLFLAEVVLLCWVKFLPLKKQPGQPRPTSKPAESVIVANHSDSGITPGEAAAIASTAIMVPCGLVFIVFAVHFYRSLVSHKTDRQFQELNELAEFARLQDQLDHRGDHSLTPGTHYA
T8 sequence (Q8BWG9 other isoform, or with tags, fused parts or gaps): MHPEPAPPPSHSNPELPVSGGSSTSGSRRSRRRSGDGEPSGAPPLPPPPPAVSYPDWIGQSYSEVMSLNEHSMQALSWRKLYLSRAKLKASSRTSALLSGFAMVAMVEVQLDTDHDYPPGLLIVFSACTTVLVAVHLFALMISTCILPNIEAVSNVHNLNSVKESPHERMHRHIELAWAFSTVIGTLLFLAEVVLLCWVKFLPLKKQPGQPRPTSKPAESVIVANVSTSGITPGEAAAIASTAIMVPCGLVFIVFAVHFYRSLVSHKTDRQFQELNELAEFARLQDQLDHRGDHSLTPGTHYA
T11 sequence (Q8BWG9 other isoform, or with tags, fused parts or gaps mutant): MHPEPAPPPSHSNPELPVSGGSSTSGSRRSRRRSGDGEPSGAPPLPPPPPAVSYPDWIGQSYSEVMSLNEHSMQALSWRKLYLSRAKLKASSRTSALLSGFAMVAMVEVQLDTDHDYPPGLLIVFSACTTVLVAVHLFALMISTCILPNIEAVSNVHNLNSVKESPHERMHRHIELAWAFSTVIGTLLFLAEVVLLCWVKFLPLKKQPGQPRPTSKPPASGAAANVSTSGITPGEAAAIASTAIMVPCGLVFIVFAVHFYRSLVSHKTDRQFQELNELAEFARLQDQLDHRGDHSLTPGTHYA
T12 sequence (Q8BWG9 other isoform, or with tags, fused parts or gaps): as the sequence (Q8BWG9 other isoform, or with tags, fused parts or gaps mutant) above, with G221V, A222I, A223V counted along it
T10 sequence (Q8BWG9 other isoform, or with tags, fused parts or gaps): as the sequence (Q8BWG9 other isoform, or with tags, fused parts or gaps mutant) above, with V226H, T228D counted along it

Binder | IC50 IFN-g, whole blood Donor A, recombinant mAb [1] | IC50 IFN-g, whole blood Donor B, recombinant mAb [1] | IC50 IL-2, whole blood Donor A, recombinant mAb [1] | IC50 IL-2, whole blood Donor B, recombinant mAb [1] | percent of control (POC) of FACS Geo Mean [2] | percent of control (POC) of FACS Geo Mean [3] | percent of control (POC) of FACS Geo Mean [4] | percent of control (POC) of FACS Geo Mean [5] | percent of control (POC) of FACS Geo Mean [6] | percent of control (POC) of FACS Geo Mean [7] | IC50 IFN-γ, whole blood Donor A, recombinant mAb [11] | IC50 IFN-γ, whole blood Donor B, recombinant mAb [11] | IC50 IL-2, whole blood Donor A, recombinant mAb [11] | IC50 IL-2, whole blood Donor B, recombinant mAb [11] | other results
B1 | 1.18 nM | 1.1 nM | 0.49 nM | 0.21 nM | < 1% | < 1% | < 1% | < 1% | < 1% | < 1% |  |  |  |  | 
B2 | 5.27 nM | 3.93 nM | 2.06 nM | 0.9 nM | < 1% | < 1% | < 1% | < 1% | < 1% | < 1% |  |  |  |  | binding result [8]: binds; binding result [9]: binds
B3 | 1.62 nM | 1.61 nM | 0.57 nM | 0.34 nM | < 1% | < 1% | < 1% | < 1% | < 1% | < 1% |  |  |  |  | binding result [8]: binds; binding result [9]: binds; IC50 IL-4 release, cynomolgus whole blood, Cyno # 1 [10]: 0.921 nM; IC50 IL-4 release, cynomolgus whole blood, Cyno # 2 [10]: 6.34 nM; IC50 IL-4 release, cynomolgus whole blood, Cyno # 3 [10]: 0.429 nM; IC50 IL-5 release, cynomolgus whole blood, Cyno # 1 [10]: 1.56 nM; IC50 IL-5 release, cynomolgus whole blood, Cyno # 2 [10]: 15.2 nM; IC50 IL-5 release, cynomolgus whole blood, Cyno # 3 [10]: 0.815 nM; IC50 IL-17 release, cynomolgus whole blood, Cyno # 1 [10]: 0.939 nM; IC50 IL-17 release, cynomolgus whole blood, Cyno # 2 [10]: 0.95 nM; IC50 IL-17 release, cynomolgus whole blood, Cyno # 3 [10]: 0.32 nM
B4 |  |  |  |  |  |  |  |  |  |  | 0.28 nM | 10.7 nM | 1.32 nM | 2.52 nM | 
B5 |  |  |  |  | < 1% | < 1% | < 1% | < 1% | < 1% | < 1% |  |  |  |  | binding result [12]: binds; binding result [13]: binds; binding result [14]: binds
B6 |  |  |  |  |  |  |  |  |  |  | 0.59 nM | 3.59 nM | 1.42 nM | 0.87 nM | 
B7 |  |  |  |  |  |  |  |  |  |  | 11.1 nM | 9.84 nM | 2.42 nM | 2.43 nM | 
